T1: gfTP1 transposase (Tgf2 transposase, 686 aa, recombinant 720 aa) (Carassius auratus)
T1 sequence: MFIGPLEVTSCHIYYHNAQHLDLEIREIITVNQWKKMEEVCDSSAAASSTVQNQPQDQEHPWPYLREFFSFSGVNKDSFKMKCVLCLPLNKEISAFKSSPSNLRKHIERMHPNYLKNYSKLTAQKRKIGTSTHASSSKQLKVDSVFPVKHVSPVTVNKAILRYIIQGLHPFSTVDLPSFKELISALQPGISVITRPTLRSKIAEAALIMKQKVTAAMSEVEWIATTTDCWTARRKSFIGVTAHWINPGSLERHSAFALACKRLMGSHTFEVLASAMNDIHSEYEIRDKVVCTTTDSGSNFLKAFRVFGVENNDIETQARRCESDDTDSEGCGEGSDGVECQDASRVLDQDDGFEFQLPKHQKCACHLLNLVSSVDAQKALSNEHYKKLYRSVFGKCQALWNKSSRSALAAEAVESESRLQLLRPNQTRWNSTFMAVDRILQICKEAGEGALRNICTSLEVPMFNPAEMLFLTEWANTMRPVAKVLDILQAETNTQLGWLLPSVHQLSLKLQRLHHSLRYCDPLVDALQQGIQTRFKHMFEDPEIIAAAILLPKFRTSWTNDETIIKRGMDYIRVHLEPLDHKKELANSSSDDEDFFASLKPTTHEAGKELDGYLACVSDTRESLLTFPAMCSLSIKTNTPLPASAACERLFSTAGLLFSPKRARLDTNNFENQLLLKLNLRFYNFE

T2: gfTP1 transposase (Tgf2 transposase, 686 aa, recombinant 720 aa) (Carassius auratus)
T2 chain: T1 sequence

B1: Tgf2 left end 50 bp probe (dsDNA)
DNA 1: CAGAGGTGTAAAAGTACTTAAGTAATTTTACTTGATTACTGTACTTAAGT
DNA 2: ACTTAAGTACAGTAATCAAGTAAAATTACTTAAGTACTTTTACACCTCTG
B2: Tgf2 right end 50 bp probe (dsDNA)
DNA 1: CAGAGGTGTAAAAGTACTAAAAATATTTACTAAAGTGAAAGTACAAGTAT
DNA 2: ATACTTGTACTTTCACTTTAGTAAATATTTTTAGTACTTTTACACCTCTG

Experiments:
[1] = test system: T1, gfTP1 transposase (Tgf2 transposase, 686 aa, recombinant 720 aa) (Carassius auratus); test: cell_activity; conditions: genomic integration rate in one-year-old blunt snout bream (35/77) vs 10% with donor plasmid only; 8-bp direct repeats at insertion sites
[2] = molecular target: T2, gfTP1 transposase (Tgf2 transposase, …); test: EMSA; 25 C, 0.5-1 h; 1x protein shifts probe, 10x gives slower complex (oligomer); control cold probe no signal; conditions: tags: N-terminal 34 aa His6-containing tag from pET-28a, E. coli Rosetta 1(DE3); label: biotin
Experimental: The 50 by sequences of left and right ends of goldfish Tgf2 transposon labeled by biotin were used as probes. The DNA binding activity was verified by EMSA, using non-denaturing polyacrylamide gel electrophoresis at 80 V for 1.0 h. Lane 1: biotin-labeled probes based on left (or right) end; Lane 2: the supernatant of cells without IPTG induction; Lane 3: co-incubation complex of biotin-labeled cold probes for control and the purified recombinant goldfish gfTP1 transposase; Lane 4: co-incubation complex of biotin-labeled probes based on Tgf2 left (or right) end and the purified 1× recombinant goldfish gfTP1 transposase; Lane 5: co-incubation complex of biotin-labeled probes based on Tgf2 left (or right) end and the purified 10× recombinant goldfish gfTP1 transposase.

Row | Molecule | activity [1] | binding result [2]
1 | donor plasmid pTgf2-zfβ-actin-eGFP | 45% | –
2 | B1 | – | binds
3 | B2 | – | binds

Source: patent publication US20160215299, “EXPRESSION METHOD OF ACTIVE GOLDFISH TGF2 TRANSPOSON RECOMBINANT TRANSPOSASE PROTEIN” (Shanghai Ocean University, published 2016)
